Experimental data published in patent publication US20120100536A1 (UNIVERSITY OF TOKYO, published 2012).

Target: T1, α1-antitrypsin (UniProt P01009 25-418)
T1 construct: Co-expressed with HTRA1-V5 in HEK293 cells; Complex detected in serum-free conditioned medium by anti-V5 immunoblot; also called al-antitrypsin
Assay: co-expression in HEK293, anti-V5 immunoblot of conditioned medium
Experimental: To assay formation of a stable complex with α1-antitrypsin, we transiently expressed α1-antitrypsin and either wild-type or mutated HTRA1 cDNAs with a VS tag at the C-terminus in HEK293 cells. These cells were grown in serum-free medium, and conditioned media were then immunoblotted with anti-V5 antibody.¹⁴

T1 sequence (P01009 25-418 limits assumed): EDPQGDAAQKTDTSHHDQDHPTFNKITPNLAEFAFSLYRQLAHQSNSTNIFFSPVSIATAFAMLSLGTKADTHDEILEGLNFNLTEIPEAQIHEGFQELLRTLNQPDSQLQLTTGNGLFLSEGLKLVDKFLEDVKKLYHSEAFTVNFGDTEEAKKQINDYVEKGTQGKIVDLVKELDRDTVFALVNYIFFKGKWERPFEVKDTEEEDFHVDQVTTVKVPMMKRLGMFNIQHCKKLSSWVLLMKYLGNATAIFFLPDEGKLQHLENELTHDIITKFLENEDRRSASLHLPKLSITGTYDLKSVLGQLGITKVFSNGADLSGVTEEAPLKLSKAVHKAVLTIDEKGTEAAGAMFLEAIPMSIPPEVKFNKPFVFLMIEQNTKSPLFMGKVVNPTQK

- binding result: no binding
B1: HTRA1 R302X with a V5 tag at the C-terminus (enzyme)
chain: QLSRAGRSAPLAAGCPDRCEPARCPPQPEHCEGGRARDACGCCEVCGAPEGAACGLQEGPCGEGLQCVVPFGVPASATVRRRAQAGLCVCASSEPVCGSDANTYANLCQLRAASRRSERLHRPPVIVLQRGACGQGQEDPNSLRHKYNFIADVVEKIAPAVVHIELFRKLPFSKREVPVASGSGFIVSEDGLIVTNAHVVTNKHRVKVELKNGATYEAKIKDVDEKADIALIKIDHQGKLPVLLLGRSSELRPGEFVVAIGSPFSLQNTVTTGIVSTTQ
notes: The range 1-301 is derived from that statement; not shown: C-terminal V5 tag
